Assay results taken from US6515103B1 (priority 1996, dated 2003).
“And” between values parts separate entries of the source, which are not always exact repeats. Identical values can stand only once. Like-named read-outs stand apart in the source and are kept apart here.

Experiments:
[1] = tested on: Frings audiogenic seizure-susceptible mice; conditions: mouse, in vivo
[2] = tested on: Frings audiogenic seizure-susceptible mice; conditions: for P.I. / PI: Frings audiogenic seizure-susceptible; for P.I. / ED50 / PI / ED50 nmol: mouse, in vivo
[3] = target: NMDA receptor; test: spermine-stimulated [3H]MK-801 binding assay, inhibition
[4] = Frings audiogenic seizure-susceptible

| Compound | IC50 [3] [nM] | also measured |
| --- | --- | --- |
| NC(=O)OCC(COC(N)=O)c1ccccc1 [Felbamate, reference compound] | – | TD50 nmol [1]: no marked toxicity; protected (number/tested) printed in ED50 column ([2]; 30 min): 5/8 protected at 525 and 4/8 protected at 630 |
| CC(C(O)c1ccc(O)cc1)N1CCC(Cc2ccccc2)CC1 (stereo not shown) [Ifenprodil, reference compound] | – | TD50 [1, 4]: <25 nmols; P.I. [2]: <1; ED50 [2]: ˜25 nmols |
| Nc1nnc(-c2cccc(Cl)c2Cl)c(N)n1 [Lamotrigine, reference compound] | – | TD50 nmol [1, 4]: >290 nmol; PI [2]: >2.0; ED50 nmol [2]: 146 nmol |
| C[C@]12N[C@H](Cc3ccccc31)c1ccccc12 [MK801, dizocilpine, reference compound] | – | TD50 [1, 4]: 1.227 nmols; P.I. [2]: 1.9; ED50 [2]: 0.641 nmols |
| CCC1(c2ccccc2)C(=O)NC(=O)NC1=O [Phenobarbitol, reference compound] | – | TD50 nmol [1, 4]: 68.8 nmol; PI [2]: 0.5; ED50 nmol [2]: 145 nmol |
| CC1(C)O[C@@H]2[C@@H](CO[C@@]3(COS(N)(=O)=O)OC(C)(C)O[C@@H]23)O1 [Topiramate, reference compound] | – | TD50 nmol [1]: no marked toxicity; ED50 nmol [2]: >150 nmol |
| CCCC(CCC)C(=O)O [Valproic Acid, reference compound] | – | TD50 [1, 4]: >6000 <12,000; P.I. [2]: 1.1-2.2; PI [2]: 1.1-2.2; ED50 nmol [2]: 566 nmol; ED50 [2]: 5644 nmols |
| (A^7,10)1-12 Con G (peptide) | 300 | – |
| (A^7,10)1-13 Con G (peptide) | 253 | – |
| (A^7,10,14)1-14 Con G (peptide) | 232 | – |
| (A^7,10,14)1-15 Con G (peptide) | 34 | – |
| (A^7,10,14)1-16 Con G (peptide) | 37 | – |
| A^3 Con G (peptide) | 9100 | – |
| A^4 Con G (peptide) | > 20000 | – |
| A^7,10,14 Con G (peptide) | 88 | – |
| A^7,Y^10 Con G (peptide) | 79 | – |

| Compound | IC50 [3] [nM] | also measured |
| --- | --- | --- |
| A^10 Con G (peptide) | 1100 | – |
| A^14 Con G (peptide) | 160 | – |
| E^4 Con G (peptide) | > 20000 | – |
| E^7,10,14 Con G (peptide) | > 20000 | – |
| S^3 Con G (peptide) | 3600 | – |
| S^4 Con G (peptide) | > 20000 | – |
| S^7 Con G (peptide) | 250 | – |
| S^10 Con G (peptide) | 1800 | – |
| S^14 Con G (peptide) | 160 | – |
| Sp^3 Con G (peptide) | 900 | – |
| Sp^4 Con G (peptide) | > 20000 | – |
| Sp^7 Con G (peptide) | 1200 | – |
| Sp^10 Con G (peptide) | 560 | – |
| Sp^14 Con G (peptide) | 1590 | – |
| Y^3 Con G (peptide) | 960 | – |
| Y^7 Con G (peptide) | 960 | – |
